Experimental findings from publication PMC2213610 (The Journal of Cell Biology, 2008) are described below.

Sequences and labels used below:
B1: His6-VASP-AAA (natural protein)
chain: MSETVICSSRATVMLYDDGNKRWLPAGTGPQAFSRVQIYHNPTANSFRVVGRKMQPDQQVVINCAIVRGVKYNQATPNFHQWRDARQVWGLNFGSKEDAAQFAAGMASALEALEGGGPPPPPALPTWSVPNGPSPEEVEQQKRQQPGPSEHIERRVANAGGPPAPPAGGPPPPPGPPPPPGPPPPPGLPPSGVPAAAHGAGGGPPPAPPLPAAQGPGGGGAGAPGLAAAIAGAKLRKVAKQEEASGGPTAPKAESGRSGGGGLMEEMNAMLARRRKAAQVGEKTPKDESANQEEPEARVPAQSESVRRPWEKNSTTLPRMKSSSSVTTSETQPCTPSSSDYSDLQRVKQELLEEVKKELQKVKEEIIEAFVQELRKRGSP
B2: His6-VASP-AAE, purified recombinant (natural protein)
chain: B1 chain with A278E
B3: His6-VASP-ADA, purified recombinant (natural protein)
chain: B1 chain with A239D

Numbering of substitutions follows the chain as printed.

One assay concerns the target T1, GST-SPCN_SH3 (UniProt Q13813 970-1025). Nature of the assay: pull-down.
For the molecule B1, the binding result is listed as “binds”.

As to B2, the binding result is reported as “binds”.

For B3, the binding result is recorded as “binds”.

The next assay deals with T1, GST-SPCN_SH3. Nature of the assay: peptide or protein array.
Regarding PPPPAPPPPPGPPPP [VASP peptide F8 with G175 changed to alanine], the binding result was “binds”.

In the case of PPPPGPPPPPAPPPP [VASP peptide F8 with G181 changed to alanine], the binding result was “binds”.

As for PPPPGPPPPPGPPPA [VASP peptide F8 with P185 changed to alanine], the binding result is listed as “binds”.

For the molecule PPPPGPPPPPGAPPP [VASP peptide F8 with P182 changed to alanine], the binding result is listed as “binds”.

For PAPPGPPPPPGPPPP [VASP peptide F8 with P172 changed to alanine], the binding result is reported as “binds”.

For PPPAGPPPPPGPPPP [VASP peptide F8 with P174 changed to alanine], the binding result is listed as “binds”.

Consider PPAPGPPPPPGPPPP [VASP peptide F8 with P173 changed to alanine], for which the binding result is “binds”.

For the molecule APPPGPPPPPGPPPP [VASP peptide F8 with P171 changed to alanine], the binding result is reported as “binds”.

As to PPAGGPPPPPGPPPP [VASP peptide F2], the binding result is reported as “binds”.

PPPPGPPPPPGPAPP [VASP peptide F8 with P183 changed to alanine]: the binding result is recorded as “binds”.

For PPPPGPPPPPGPPPP [VASP peptide F8], the binding result is listed as “binds”.

As for PPPPGPPPPPGPPAP [VASP peptide F8 with P184 changed to alanine], the binding result was “binds”.
